# Results: patent US20030105000A1 (UNIVERSITY OF VERMONT AND STATE AGRICULTURAL COLLEGE, published 2003)
# Positions of bridges follow the written chain, without caps; N, C: chain ends. No end group written: not given here.
# T1: Grb14-SH2-GST (UniProt Q14449 423-540)
# T1 construct: domain: SH2 domain; also called SH2 domain of Grb14; not shown: glutathione-S-transferase (GST) fusion partner
# T1 sequence (looked up): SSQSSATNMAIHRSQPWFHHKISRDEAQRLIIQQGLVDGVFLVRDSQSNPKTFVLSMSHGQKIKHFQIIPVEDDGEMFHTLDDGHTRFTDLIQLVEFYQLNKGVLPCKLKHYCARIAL
# B1: G7BP-5NA (peptide)
# peptide: CWFEGYDNTFPC
# notes: also called G7-18NA
# B2: G7BP-2 peptide-phage clone (peptide, not shown: large carriers)
# peptide: KLFWCTYEDYANEWPCPGYS
# modifications: disulfide 5-16; also: displayed on phage gene III protein
# notes: Tested as a phage clone displaying the peptide on the gene III protein
# B3: G7-8NATE free synthetic peptide (peptide)
# peptide: VFWGYANDWLC
# modifications: non-phosphorylated; thioether bond between the ends of the peptide (N-terminal cysteine replaced by another functional group)
# notes: Lacks the arms; also called G7BP-4NATE
# B4: G7-18 free synthetic peptide (peptide)
# peptide: RSTLCWFEGYDNTFPCKYFR
# modifications: disulfide 5-16 (inferred)
# notes: Free synthetic peptide, not on phage; also called G7BP-5; G7-18 (disulfide)
# B5: G7BP-7NA (peptide)
# peptide: CGYIGYDNIFEC
# modifications: disulfide 1-12 (inferred)
# B6: G7-8 free synthetic peptide (peptide)
# peptide: GVSNCVFWGYANDWLCSDYS
# modifications: disulfide 5-16 (inferred)
# notes: Free synthetic peptide, not on phage; also called G7BP-4
# B7: G7BP-7 peptide-phage clone (peptide, not shown: large carriers)
# peptide: RTSPCGYIGYDNIFECTYLG
# modifications: disulfide 5-16; also: displayed on phage gene III protein
# notes: as for B2
# B8: G7BP-1NA (peptide)
# peptide: CKYLYYDNDYLC
# modifications: disulfide 1-12 (inferred)
# B9: G7BP-6NA (peptide)
# peptide: CNEELYENCGGC
# modifications: disulfide (positions not given here); not fully specified
# B10: G7BP-6 peptide-phage clone (peptide, not shown: large carriers)
# peptide: FCAVCNEELYENCGGCSVGK
# modifications: disulfide 5-16; cysteine pairing not given here; also: displayed on phage gene III protein
# notes: as for B2
# B11: G7BP-4 peptide-phage clone (peptide, not shown: large carriers)
# peptide: GVSNCVFWGYANDWLCSDYS
# modifications: disulfide 5-16; also: displayed on phage gene III protein
# notes: Tested as a phage clone displaying the peptide on the gene III protein; also called G7-8 peptide-phage
# B12: G7BP-3 peptide-phage clone (peptide, not shown: large carriers)
# peptide: NVSECIYIHYDNWSLCGVEV
# modifications: disulfide 5-16; also: displayed on phage gene III protein
# notes: as for B2
# B13: G7BP-3NA (peptide)
# peptide: CIYIHYDNWSLC
# modifications: disulfide 1-12 (inferred)
# B14: G7BP-5 peptide-phage clone (peptide, not shown: large carriers)
# peptide: RSTLCWFEGYDNTFPCKYFR
# modifications: disulfide 5-16; also: displayed on phage gene III protein
# notes: Tested as a phage clone; also called G7-18 peptide-phage
# B15: G7-18NATE free synthetic peptide (peptide)
# peptide: WFEGYDNTFPC
# modifications: non-phosphorylated; thioether bond between the ends of the peptide (N-terminal cysteine replaced by another functional group)
# notes: Lacks the 4-residue arms on both sides; cyclised by a thioether; also called G7BP-5NATE; G7-18NATE (thioether)
# Key:
# [1] = target: T2, Grb7-SH2 domain-GST (SH2 domain of human Grb7 containing a GST fusion tag) (human, UniProt Q14451 415-532); experiment: assay not described (sentence of Example 3)
# T2 construct: domain: SH2 domain; Purified from E. coli; also called Grb7-SH2-GST; not shown: glutathione-S-transferase (GST) fusion tag
# Grb2-GST [2] = target: T3, Grb2-GST (UniProt P62993 1-217); experiment: phage ELISA (FIG. 4)
# T3 construct: also called full length Grb2; not shown: glutathione-S-transferase (GST) fusion partner
# Grb14-SH2-GST = target: T1, Grb14-SH2-GST; experiment: phage ELISA (FIG. 4)
# [3] = target: T2, Grb7-SH2 domain-GST (SH2 domain of …); experiment: phage ELISA (legend of FIG. 1)
# From the text: (§1) The overall methodology of an ELISA is well established. […] Non-specific binding was blocked by casein. Binding of phage was detected using an anti-phage antibody conjugated to horseradish peroxidase.
# BSA = target: T4, BSA (UniProt P02769 25-607); experiment: phage ELISA on coated protein (FIG. 1)
# T4 construct: also called bovine serum albumin
# From the text: as §1
# GST alone = target: T5, GST alone (UniProt P08515 1-218 = GST); experiment: phage ELISA on coated protein (FIG. 1)
# T5 construct: Control protein coated on the ELISA plate; also called fusion protein (GST)
# From the text: as §1
# [4] = target: T2, Grb7-SH2 domain-GST (SH2 domain of …); experiment: competition ELISA on Grb7-SH2-GST; competitor G7-8NA peptide-phage (FIG. 5B)
# From the text: (§2) Unbound phage were washed away with Tween-TBS buffer and bound phage were detected with anti-M13-horseradish peroxidase (Amersham-Pharmacia Biotech) and ABTS substrate (Calbiochem). […] Plates were read at OD₄₀₅.
# Grb2-GST [5] = target: T3, Grb2-GST; experiment: competition ELISA against Grb2-binding peptide-phage (data not shown)
# [6] = target: T2, Grb7-SH2 domain-GST (SH2 domain of …); experiment: competition ELISA on Grb7-SH2-GST; free peptide 1, 10, 100 uM; competitor G7-18 peptide-phage (FIG. 5A)
# From the text: as §2
# Grb2-GST [7] = target: T3, Grb2-GST; experiment: phage ELISA on coated protein (FIG. 1)
# From the text: as §1
# [8] = target: T2, Grb7-SH2 domain-GST (SH2 domain of …); experiment: phage ELISA on coated Grb7-SH2 domain-GST, anti-phage-HRP (FIG. 1)
# From the text: as §1
# [9] = target: T2, Grb7-SH2 domain-GST (SH2 domain of …); experiment: competition ELISA on Grb7-SH2-GST; competitor G7-18 peptide-phage (FIG. 5A)
# From the text: as §2
# T3 sequence (P62993 whole entry, the tested form may be a part): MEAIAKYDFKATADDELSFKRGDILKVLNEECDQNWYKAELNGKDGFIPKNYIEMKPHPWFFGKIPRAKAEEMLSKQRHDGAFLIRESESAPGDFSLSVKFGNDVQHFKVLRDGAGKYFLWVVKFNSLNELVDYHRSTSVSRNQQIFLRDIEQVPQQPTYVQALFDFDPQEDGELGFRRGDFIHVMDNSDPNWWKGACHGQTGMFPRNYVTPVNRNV
# T5 sequence (P08515 whole entry, the tested form may be a part): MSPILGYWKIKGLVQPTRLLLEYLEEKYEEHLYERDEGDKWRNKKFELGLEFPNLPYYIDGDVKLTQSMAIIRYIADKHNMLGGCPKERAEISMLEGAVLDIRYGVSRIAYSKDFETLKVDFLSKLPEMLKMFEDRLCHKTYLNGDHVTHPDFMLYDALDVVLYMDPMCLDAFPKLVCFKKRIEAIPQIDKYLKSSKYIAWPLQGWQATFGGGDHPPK
# T4 sequence (P02769 25-607 limits assumed): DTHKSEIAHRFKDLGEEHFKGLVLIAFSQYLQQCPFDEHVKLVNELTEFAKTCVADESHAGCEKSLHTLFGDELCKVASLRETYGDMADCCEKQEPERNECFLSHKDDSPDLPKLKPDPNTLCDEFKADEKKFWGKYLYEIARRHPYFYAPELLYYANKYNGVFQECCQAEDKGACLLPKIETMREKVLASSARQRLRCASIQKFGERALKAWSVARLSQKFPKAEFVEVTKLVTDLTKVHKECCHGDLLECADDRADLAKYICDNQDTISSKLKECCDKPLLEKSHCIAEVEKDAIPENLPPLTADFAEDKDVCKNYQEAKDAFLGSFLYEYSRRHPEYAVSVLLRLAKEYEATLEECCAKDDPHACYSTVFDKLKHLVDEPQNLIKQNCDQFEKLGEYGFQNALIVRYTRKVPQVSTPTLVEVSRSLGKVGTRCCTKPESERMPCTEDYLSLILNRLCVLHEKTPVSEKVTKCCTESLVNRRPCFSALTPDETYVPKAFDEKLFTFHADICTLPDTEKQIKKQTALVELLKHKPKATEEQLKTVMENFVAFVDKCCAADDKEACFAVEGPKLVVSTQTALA
# T2 sequence (Q14451 415-532): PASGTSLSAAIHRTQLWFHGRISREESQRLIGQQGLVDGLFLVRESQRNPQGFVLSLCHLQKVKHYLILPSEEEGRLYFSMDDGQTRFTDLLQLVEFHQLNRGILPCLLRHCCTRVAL
Binder,binding result [1],binding result (Grb14-SH2-GST),binding result (BSA),binding result (GST alone),binding result (Grb2-GST [7]),binding result [8],further results
B1,binds,–,–,–,–,–,–
B2,–,no binding,no binding,no binding,–,–,binding result (Grb2-GST [2]): no binding; binding result [3]: binds
B3,–,–,–,–,–,–,binding result [4]: binds
B4,–,–,–,–,–,–,binding result (Grb2-GST [5]): no binding; binding result [6]: binds
B5,binds,–,–,–,–,–,–
B6,–,–,–,–,–,–,binding result (Grb2-GST [5]): no binding; binding result [6]: binds
B7,–,no binding,no binding,no binding,no binding,binds,–
B8,binds,–,–,–,–,–,–
B9,binds,–,–,–,–,–,–
B10,–,no binding,no binding,no binding,no binding,binds,–
B11,–,no binding,no binding,no binding,no binding,binds,–
B12,–,no binding,no binding,no binding,no binding,binds,–
B13,binds,–,–,–,–,–,–
B14,–,no binding,no binding,no binding,no binding,binds,–
B15,–,–,–,–,–,–,binding result [9]: binds
